Reference: the DeepSol protein solubility set

assay: soluble on expression in E. coli; label from the status in PepcDB or PDB records

| Sequence | soluble on expression in E. coli |
| --- | --- |
| MGSDKIHHHHHHMKILFLSHLDMNLYLFRRPIMEALRKEGHEVIAMCPKGEYFDRFKELGIKAISYEISRESLNPFKELKTLLSIAQKLSELKPDILHTFMLKPNIYGTLASKIASIPYVICSVTGLGSFYIEESFKSRAIRYLIETLSRIVFKIAKKVVFQNEDDRQLFIQKGLVESSKTHLIKGSGINTKLFDPALISPSTLVRYRQELGLEKKHVVLMVARAIAHKGVREYYEAARLLGAFTSDSHLAFLFVGDTDEGNPSCVSSKELYSPHVLWLGHREDILELMALCDIFVLPSYREGIPRTLLEASSLAKPMVTSLAVGCKEVVKEGENGFLVPVGDTKALAQKIHYLVQNPALRLSMGEKARQIAQKEFDVSIIVKAHLELYKEVRGDLQKTL | not soluble |
| MGRRRSHERRDLPPNLYIRNNGYYCYRDPRTGKEFGLGRDRRIAITEAIQANIELFSGHKHKPLTARINSDNSVTLHSWLDRYEKILASRGIKQKTLINYMSKIKAIRRGLPDAPLEDITTKEIAAMLNGYIDEGKAASAKLIRSTLSDAFREAIAEGHITTNHVAATRAAKSEVRRSRLTADEYLKIYQAAESSPCWLRLAMELAVVTGQRVGDLCEMKWSDIVDGYLYVEQSKTGVKIAIPTALHIDALGISMKETLDKCKEILGGETIIASTRREPLSSGTVSRYFMRARKASGLSFEGDPPTFHELRSLSARLYEKQISDKFAQHLLGHKSDTMASQFRDDRGREWDKIEIK | soluble |
| MSVEGLGKDFCGAIIPDNFFPIEKLRNYTQMGLIRDFAKGSAVIMPGEEITSMIFLVEGKIKLDIIFEDGSEKLLYYAGGNSLIGKLYPTGNNIYATAMEPTRTCWFSEKSLRTVFRTDEDMIFEIFKNYLTKVAYYARQVAEMNTYNPTIRILRLFYELCSSQGKRVGDTYEITMPLSQKSIGEITGVHHVTVSRVLACLKRENILDKKKNKIIVYNLGELKHLSEQTSYYSDPNSSSVDKLAAALDHH | soluble |
| MAHHHHHHMLKECDFFSDSYGCIITKSIGYQAPFPLVRLSNGRSTKIPDGACVQGACFVSFGADHTGSRGRLLTMDVSARASSVSFLQLLSSSCPPVTLEPEVEYVSKIETTETASAVVTRGGGNRWSTSVYVQGEDVPDTAYSRRVHFHRASVASLFGFSLWLMEVAKDDYGAQAVHRYSLSTALTGGVSESTLVSANLGRPLDIIALSEDTALVLGTNGVAMADRRQRASDILFFSNLLNGGATGDRQLLTFGEDYTLRAYDLRDVSAPLFQATSATYLRIKSEIDTRASLLVTSDITGVFDVLHVTTVASLQHSGDTVLDAAVLPSRHNGVRVCTSTGSGMIYDWTVT | not soluble |
| MGSDKIHHHHHHMYKIGIDVGGTNTDAVILDENQQLIHSVKMPTSEDIETGITESLHRVLSETGIDRSKVTHAMLGTTQCTNAIVERKKLAKVGVLRLGYPATASVLPYTAWPEDMVGFLSGKYKLTGGGYEYDGQVLSEINEAEIRETLASWKGEVESVAVVGVFSSLKNDQELAVQKIIEEELGADIPVSISSSVGSVGLIERENATILNAALFKVIAATSDGFEKALEQEGIEHAEIYLCQNDGTLMSLNYARQFPILTIACGPTNSIRGASYLAGLKDAMVLDVGGTTSDIGVLTDGFPRESSLAVDVGGVRTNFRMPDIISIGLGGGSIVREKDGDITIGPDSVGYRISEEALVFGGKTMTTTDIAVRLGMAEIGNPELVAHIPTDFAEKAYKKIADMTEDAIDKMKTSSGSVSLVLVGGGSMIIPDEISGVAQIFRDKNGPVANAIGASISQISGQYEQIYIYSQIEREEALQDAEQKAREQATLAGAVTDSIEVVEVEEIPLAYHPGNATRLRVKVVGDLV | not soluble |
| MQQVIPAPRVQVTQPYAGQKPGTSGLRKKVSEATQPNYLENFVQSIFNTLRKDELKPKNVLFVGGDGRYFNRQAIFSIIRLAYANDISEVHVGQAGLMSTPASSHYIRKVNEEVGNCIGGIILTASHNPGGKEHGDFGIKFNVRTGAPAPEDFTDQIYTHTTKIKEYLTVDYEFEKHINLDQIGVYKFEGTRLEKSHFEVKVVDTVQDYTQLMQKLFDFDLLKGLFSNKDFSFRFDGMHGVAGPYAKHIFGTLLGCSKESLLNCDPSEDFGGGHPDPNLTYAHDLVELLDIHKKKDVGTVPQFGAACDGDADRNMILGRQFFVTPSDSLAVIAANANLIFKNGLLGAARSMPTSGALDKVAAKNGIKLFETPTGWKFFGNLMDAGLINLCGEESFGTGSNHIREKDGIWAVLAWLTILAHKNKNTDHFVTVEEIVTQYWQQFGRNYYSRYDYEQVDSAGANKMMEHLKTKFQYFEQLKQGNKADIYDYVDPVDQSVSKNQGVRFVFGDGSRIIFRLSGTGSVGATIRIYFEQFEQQQIQHETATALANIIKLGLEISDIAQFTGRNEPTVIT | soluble |
| MGSDKIHHHHHHMRVNSQSNHDVSPAPSGVVLEAADPAELLVRAQKTLGLLSPLLSPLAQAFHDRGHRLYLVGGSVRDALLDELGHDLDCTTDARPEVVSAILEEYAPVVWDTGIEFGTVSAEKDGQQIEITTFRSDVYDGQSRNPEVQFGDTLEGDLIRRDFTVNAMAMEILPDGSMQFHDPVGGMNDLVAGLLDTPATPQQSFNDDPLRMLRAARFVSQLGFDLAPRVRHAMTEMADQITRITAERVQVELDKMICGKVPWDGIDVMVDTGLADIIYPEISALRLTQDEHHQHKDVYAHSLTVLRQAMDQEEDGPDVVLRWAALMHDCGKPDTREFSPEGRVSFHQHEIVGARLMRHRMRALKYSKHTIRDVSELIRLHMRFHGFSEGEWTDSAVRRYVTDAGDLLPRLHKLVRADCTTRNKKKAERLQKTYDHLEDRIADIAAKEDLAKVRPDLDGNEIMEILDIKAGPQVGQAWKFLKELRLERGPLEREDAILELKKWWYEQ | not soluble |
| SNEVKESLRSIEQKYKLFQQQQFTFIAALEHCRENAHDKIRPISSIEQVQSYMEHYCNNSTHRRILIMFMDICSELSKLCQHFEALHSGTPVTNSLLEKCKTLVSQSNDLSSLRAKYPHEVVNHLSCDEARNHYGGVVSLIPIVLDFMKEWIAHSEKLPRKVLQHGTT | soluble |
| ASDDELFSMLDQRFGGGEDLLMSGDNGMTEEKLRRYLKRTVTELDSVTARLREVEHRAGE | soluble |
| MTEILQTLKEYIPISLEEMSGIKLMNRTDTKYVTSYQILKEILLAAGHDYRVQEVNGEYNIAYHTIYLDTADRDMYLTHQNGRVVREKIRIRTYVDSDLTFLEVKNKNNKGRTDKKRIRIGSIDTIKEDGGEAFLRQHAWYEQSQLLPLLENSFRRITLVNKHKTERLTIDTGVTFCCLQSGKISSLDNIVIIELKRDGHNSSPIKEILRKLHIQSSGFSKYCIGSALTVSHLKCNRLKPKLRMLNKMGVY | not soluble |
| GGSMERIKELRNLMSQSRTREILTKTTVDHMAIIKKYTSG | soluble |
| YCICNQVSYGEMVGCDNQDCPIEWFHYGCVGLTEAPKGKWYCPQCTAAMKRRGSRHK | soluble |
| MRGSHHHHHHGSPYNVMIVDDAAMMRLYIASFIKTLPDFKVVAQAANGQEALDKLAAQPNVDLILLDIEMPVMDGMEFLRHAKLKTRAKICMLSSVAVSGSPHAARARELGADGVVAKPSGTVSHDLEEKTGGELARTMRTLMAA | soluble |
| MGSDKIHHHHHHMLNSDLDIRLEPRIKELYRLHKERSANIDWSYHEFIPWDKAMSFKRVPWEESQVTLPEGVIVAVETALLTEVNLPWYTSHLDYTFKNSMEVINDFVRTWTAEEDQHSSLLETYLLVTRNVNPTRLHQLRRRVVESGWFPDFTNPLATMAYTSLQELATLVFYNNVARVAGAHDKDLATLLRRLAKDEALHYAFYRDTVKAHLELDPNFIVFFEDVIINFSMPGAIMPDFTERMKTIAIDTNYGPLQYFDQVLDVVVKYWDIENLQPTSEEAKQSQANIMKYHGRLKRIKDRQSAKNKIDA | not soluble |
| MAHHHHHHMFSRTGFRCAPVVEDVVAAFKVLGLAYNPRAPASSRPGVDDVRRQYLEMARLHHPDLSSGDDNRMKVINTAYELIQSSGILHGAYDAPAGAREGVAGQQGGEAGTATRFARKAGARRRRMPDDFASGDDSSWSMKTSLDWQAIMNSTETLSDEEMKNPANHPFSHSKFFTFEDDLTIYRMICGGATVRQVARSLGKPATFIERRLQNAQFKLRVQYVLRQDKRKSTAASSNGAASSGSMQQTTSTTITEPATRRALRRSPYEDAHVSSTVRKREWEPSYPEWRAPRYRDQMTLEEQGRLDGLLRETPRAAHAAGKSVSSLHSARRSAASKMGRSYENYKRLRPSF | not soluble |
| MITTQDKELLAKKGITEAQIAEQLACFQTGFPYLKLDAAASIEKGILAPDAEEKNAYLAAWDAYKNTDKIIVKFVPASGAASRMFKNLFEFLSAEYDKPTTKFEQAFFDGIKDFAFYDDLNVACQRTAGKDIPGLMEEGNYKAVVAALLETAGLNYGALPKGLLKFHKYPEGSRTPLEEHLAEGAMYAAGKSGKVNVHFTVSTEHRELFKKLVEEKAEAFGKRYGVDYYITFSEQKPNTDTIAADMDNQPFRDNGKLLFRPGGHGALIENLNDLDADIIFIKNIDNVVPDKLKADTVTYKKLIAGVLVSLQKKAFEYLELLDSGKYTHEQIMEILQFLQKQLFCKNPETKNLEDAELVIYLKNKLNRPMRVCGMVKNVGEPGGGPFLAYNSDGTISLQILESSQIDMNDPAKKEMFEKGTHFNPVDLVCAVRDYKGHKFDLVKYVDKATGFISYKSKNGKDLKALELPGLWNGAMSDWNTVFVEVPLTTFNPVKTVNDLLREQHQ | not soluble |
| MGSDKIHHHHHHMLLDYDVALEDDFQQFIKQIPAPVRALLDSADPVARHQRQAVYTLFGIPGRPATMTPLVEALAMVSTLDTPSFAPTPTINDLALSKAHAYASQYLLQQFIRTVSHTTMLPPANRHELLTAAQSLPLANLNRLRLNFNQRERIADFLKDTKDRPAKLTSLSGYLATSLAGLDPAICGLARAIGESVGIVLTILTDVQVTRQIADFRERLLMGNYPLPLLFGFENDPGYFYDFFHQAHKPTADQFVATQQRVLMIGVAPALTMANELVDQARLDSQQLPTDLKKRVEQALTRLAAATAQPH | not soluble |
| MGSDKIHHHHHHMILDPILDMFRGKAVTIPPLDGAFRPNTRLDDAPTFAELTEPDNLLADGGRLLATSGNAIYSLAAGAEPKVIETFPSPITAQALAPSGDLTVALESGKLLTSGKEVSLPADLSCITALAYAEDGTLWLANGSAEHAPSQWAADLMKKGASGSLWKRDATGGAFRKVAGALAFPYGLLPLGGDVLVSESWRHQLIRFDGATGNRSTVLTHLPGYPARLASAGDGGAWLALFAPRNRLIEFVLQETHYRQDMIDQVPPAYWIAPALASNRSFLEPLQCGGIRTMGIHKPWSPSRSYGLVVRLDARMQPQFSLHSRANGTRHGICSVVEKAGRLFIASKGGDCVLDAGGF | not soluble |
| MSKEPRIKILNGQTVQVRKEDHTIMNPLRWCIGKNFTGEKVELVGYTIPHPSDDISNITIQLCDESLQTPPNLLKKLVEGLECMEAIGAKIASEIERSKGGFNK | not soluble |
| MIQVYKYDENFMFVEPLVVTEIDEKGDYIFPDNCTSVPLPDSPSYYLPRFDLSKQVWIETASQEYIDSLSPPPEEPSDVELLGQSLAEARILILKQNRIILNLQNEVKNLKDGTTALEHHHHHH | soluble |
| MRIVAVTDIHGNMASTVALANILKKIEAELLLIAGDITHFSGGEIAKQILEPLLKLGVRVLAVMGNCDGKDVPKVLDELGINVHNARVEVKKVGVVGFGGSSVTPFSTIWEFSEEEIYSSLKRNYRSGDIVLTHAPPYRTRIDKTFSGIHAGSKGLRKFIEEEQPPICICGHIHEARGIDKIGETLVVNPGPLSRRYYAVIDSETWEVKLERLLEHHHHHH | soluble |
| MGHHHHHHSHMKALSPVRGCYEAVCCLSERSLAIARGRGKGPAAEEPLSLLDDMNHCYSRLRELVPGVPRGTQLSQVEILQRVIDYILDLQVVLAEPAPGPPDGPHLPIQTAELAPELVISNDKRSFCH | not soluble |
